Data from US20230383007A1 (BIOSION, published 2023).

T1: human TROP2-his protein (human, UniProt P09758 27-274)
T1 construct: also called biotin labeled human TROP2-his protein
T1 sequence: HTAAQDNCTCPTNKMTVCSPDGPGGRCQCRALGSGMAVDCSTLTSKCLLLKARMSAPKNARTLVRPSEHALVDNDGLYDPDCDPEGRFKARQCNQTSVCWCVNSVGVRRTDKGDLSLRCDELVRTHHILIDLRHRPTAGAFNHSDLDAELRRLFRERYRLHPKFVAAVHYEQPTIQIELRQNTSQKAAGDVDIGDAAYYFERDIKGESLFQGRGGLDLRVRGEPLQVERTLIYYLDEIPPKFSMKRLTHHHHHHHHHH

T2: cynomolgus TROP2-his protein (cynomolgus, UniProt P09758 27-272 (human entry), limits assumed)
T2 construct: also called Cyno TROP2-his; Cynomolgus monkey TROP2-his protein
T2 chain: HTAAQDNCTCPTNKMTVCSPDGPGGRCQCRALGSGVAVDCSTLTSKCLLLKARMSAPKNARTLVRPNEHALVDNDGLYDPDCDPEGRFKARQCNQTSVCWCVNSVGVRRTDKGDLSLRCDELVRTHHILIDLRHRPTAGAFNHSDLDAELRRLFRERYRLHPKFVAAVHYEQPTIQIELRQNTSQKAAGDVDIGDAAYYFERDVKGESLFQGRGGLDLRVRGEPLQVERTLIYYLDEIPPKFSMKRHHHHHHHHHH


Key:
human TROP2-his protein [1] = biological target: T1, human TROP2-his protein; experiment: indirect ELISA on human TROP2; unit taken from the x axis (nM)
[2] = biological target: T2, cynomolgus TROP2-his protein; experiment: indirect ELISA on cynomolgus TROP2; unit taken from the x axis (nM)
human TROP2-his protein [3] = biological target: T1, human TROP2-his protein; experiment: SPR Biacore; antibody captured on anti-human IgG chip, TROP2-his as analyte
[4] = biological target: T2, cynomolgus TROP2-his protein; experiment: as above
human TROP2-his protein [5] = biological target: T1, human TROP2-his protein; experiment: SPR Biacore T200; antibody captured on anti-human IgG CM5 chip, TROP2-his as analyte in 2-fold dilutions from 160 nM; 1:1 Langmuir fit
Excerpt: (§1) The purified anti-TROP2 mouse monoclonal antibodies (mAbs) were characterized for binding affinity and binding kinetics by Biacore T200 system (GE healthcare, Pittsburgh, PA, USA). Briefly, goat anti-human IgG (GE healthcare, Cat #BR100839, Human Antibody Capture Kit) was covalently linked to a CM5 chip (carboxy methyl dextran coated chip from GE healthcare #BR100530) via primary amines, using a standard amine coupling kit (GE healthcare, Pittsburgh, PA, USA) provided by Biacore. Un-reacted moieties on the chip (biosensor) surface were blocked with ethanolamine. The anti-TROP2 antibodies of the disclosure and the benchmark at the concentration of 2 μg/ml were respectively flowed onto the chip at a flow rate of 10 μL/min. Then, serially diluted human TROP2-his protein (prepared in-house with SEQ ID NO: 16), or cynomolgus TROP2-his protein (prepared in-house with SEQ ID NO: 19), 2-fold dilution in HBS-EP⁺ buffer (provided by Biacore) starting at 160 nM, were flowed onto the chip at a flow rate of 30 μL/min. The antigen-antibody association kinetics was followed for 2 minutes and the dissociation kinetics was followed for 10 minutes. The association and dissociation curves were fit to a 1:1 Langmuir binding model using BIAcore evaluation software.

[6] = biological target: T2, cynomolgus TROP2-his protein; experiment: as above
Excerpt: as §1

human TROP2-his protein [7] = biological target: T1, human TROP2-his protein; experiment: capture ELISA: antibody captured on anti-human IgG Fc coated plate, biotin labeled human TROP2-his detected with streptavidin-HRP; unit taken from the x axis (nM)
Description: For the capture ELISA, 96-well plates were coated with 100 μl 2 μg/ml AffiniPure F(ab′)₂ Fragment GoatAnti-Human IgG, Fey fragment specific (Jackson Immuno Research, Cat #109-006-008) in PBS overnight at 4° C. Plates were washed once with wash buffer (PBS+0.05% v/v Tween-20, PBST) and then blocked with 200 μl/well blocking buffer (5% w/v non-fatty milk in PBST) for 2 hours at 37° C. Plates were washed 4 times and respectively incubated with 100 μl serially diluted anti-TROP2 antibodies of the disclosure, the benchmark or negative control hIgG (human immunoglobulin (pH4) for intravenous injection, Hualan Biological Engineering Inc.) (5-fold dilution in 2.5% w/v non-fatty milk in PBST, starting at 66.7 nM) for 40 minutes at 37° C., and then washed 4 times again. […] The reaction was stopped in 3-10 minutes at room temperature with 50 μl/well 1M H₂SO₄, and the absorbance of each well was read on a microplate reader using dual wavelength mode with 450 nm for TMB and 630 nm as the reference wavelength. […] Data was analyzed using Graphpad Prism software and EC₅₀ values were reported.

| Binder | EC50 (human TROP2-his protein [1]) | EC50 [2] | Kd (human TROP2-his protein [3]) | koff (human TROP2-his protein [3]) | kon (human TROP2-his protein [3]) | Kd [4] | koff [4] | kon [4] | Kd (human TROP2-his protein [5]) | koff (human TROP2-his protein [5]) | kon (human TROP2-his protein [5]) | Kd [6] | koff [6] | kon [6] | EC50 (human TROP2-his protein [7]) |
| --- | --- | --- | --- | --- | --- | --- | --- | --- | --- | --- | --- | --- | --- | --- | --- |
| sacituzumab (benchmark, an analog of sacituzumab, in house made) (antibody, human IgG1, kappa, V domains shown, also called BM; BM1) VH: SVQLQQSGSELKKPGASVKVSCKASGYTFTNYGMNWVKQAPGQGLKWMGWINTYTGEPTYTDDFKGRFAFSLDTSVSTAYLQISSLKADDTAVYFCARGGFGSSYWYFDVWGQGSLVTVSS VL: DIQLTQSPSSLSASVGDRVSITCKASQDVSIAVAWYQQKPGKAPKLLIYSASYRYTGVPDRFSGSGSGTDFTLTISSLQPEDFAVYYCQQHYITPLTFGAGTKVEIKR | 162 pM | 161 pM | 554 pM | 0.000286 s⁻¹ | 516000 M⁻¹ s⁻¹ | 436 pM | 0.000228 s⁻¹ | 522000 M⁻¹ s⁻¹ | 409 pM | 0.000116 s⁻¹ | 284000 M⁻¹ s⁻¹ | 874 pM | 0.000224 s⁻¹ | 257000 M⁻¹ s⁻¹ | 269 pM |
| single domain antibody 01-9F (VHH) VHH: QVQLVESGGGSVQAGGSLRLSCVVSGLPYERYCVAWFRQGPGKEREGVARILSDGTTSYSDSVKGRFTISKDNAKNTLYLQMNSLKSEDTATYYCAAEAFRPFTPSDGDCTTVLGIDYWGKGTPVTVSS | 104 pM | 107 pM | 291 pM | 0.00017 s⁻¹ | 586000 M⁻¹ s⁻¹ | 285 pM | 0.00015 s⁻¹ | 525000 M⁻¹ s⁻¹ | 26.2 pM | 8.11e-06 s⁻¹ | 309000 M⁻¹ s⁻¹ | 558 pM | 0.000161 s⁻¹ | 287000 M⁻¹ s⁻¹ | 164 pM |
